Experiment: yeast display, Sf9 membrane polyspecificity reagent, FACS + sequencing; frameworks hold sequencing errors
Summary of the method: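 Nanobodies from a synthetic yeast display library (Saccharomyces cerevisiae BJ5465), induced 36–48 hours with galactose, were stained 1 hour at 4 °C with 10% biotinylated, detergent-solubilized Sf9 membrane reagent, enriched on streptavidin microbeads, then FACS-sorted. Anti-HA (expression) and streptavidin (reagent binding) fluorescence set low and high (top ~1%) gates. Polyreactivity labels come from the gate of origin. Genes were colony-PCR amplified, MiSeq 2 × 250 sequenced and filtered by CDR length.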

| Sequence | polyreactivity (PSR sort gate) |
| --- | --- |
| QVQLVESGGGLVQAGGSLRLSFAASEGWYRQAPGKERELVAAISYIGGSTYYADSEKGRFTISRDNAKNTVYLQMNRLKPEDTAVYYCAKGYPDPKWGGVLAYDYWGQGTQVTVSS | low polyreactivity |
| QVQLVESGGGLVQAGGSLRLSCAASGRIFGSYAMGWYRQAPGKERELVAAISWRGTSTYYADSVKGRFTISRDNAKNTVYLQMNSLKPEDTAVYYCAARGLWPYDYWGQGTQVTVSS | low polyreactivity |
| QVQLVESGGGLVQAGGSLRLSCAASGRIFSFNAMGWYRQAPGKERELVAGITYGGNTYYADSVKGRFTISRDNAKNTVYLQMNSLKPEDPAVYYCAAVRGGRHDYWGQGTQVTVSS | low polyreactivity |
| QVQLVESGVGLVQAGGSLRLSCAASGFLFKYNAMGWYRQAPAKERELVAAISWSGSRTYYADSVKGRFTISRDNAKNTVYLQMNSLKPEDTAVYYCNAVSWRTSRYDYWGQGTQVTVSS | high polyreactivity |
| QVQLVESGGGLVQAGGSLRLSCAASGSTFPYYAMGWYRQAPWKERELVAAIRRRTGSTHYADSVKGRFSISRDNAMNTVYLQMNSLKQEDTAFYYCAADVSYRGNGHGYWGQGTQVNVSS | low polyreactivity |
| QVQLVESGGGLVQAGGSLRLSCAASGFTFGYYTMGWYRPEAGKEWELVAAISNSGGRTYYADSVKGRFTISLDYAKNTVYFQMNSLKPEDTAVYYCAKAYRTPGYDSWGQGTQVTVSS | high polyreactivity |
| QVQLVESGGGLVQAGGSLRLSCAASGRPFDSNAMGWYRQGPGKERELVAAISYGCGTTHYADSVKGRFTISRDNAKNTVYLQMNSLKPEDTAVYYCAADPELQWESVTIGEYDYWGQGTQVTVSS | low polyreactivity |
| QVQLGESGGGIVQAGGSLRLSCAASGRTFAFNAMGWYRQAPGKERELVAAIRWSGGSTYYADSVKGRFTISRDNAKNTVYLQMNSLKPEDTAVYYCATGKWGYFRYNYWGQGTQVTVSS | high polyreactivity |
| QVQLVESGGGLVQAGGSLRLSCAASGRIFYLYTMGWYRQAPGKERELVAAITRAGRTYYADSVKGRFTISRDNAKNTVYLQMNSLKPEDTAVYYCAAAFLSRVQGYDSWGQGTQVTVSS | high polyreactivity |
| QVQLVESGGGLVQAGGSLRISCAASGSTFSDYDMVWYRQAPGKERELVAAISKRGGSTDYADSVKGRFTFSRDNAKITVYLQMNSLKPEDTAVYYCAKDGTHGYDYWGQGTQVTVSS | low polyreactivity |
| QFQLVESGGGLVQAGASLRLSSAASGSTFVFYAMGWYRQAPGKERELVATISTGVSTYADSVKGRFTISRDNAKNTVYLQMNSLKPEDTAVYYCAADSLFGHYDYSGQGTQVTVSS | low polyreactivity |
| QVQLVDSGGGLVQAGGSLRLSCAASGSIYGYYAMGWYRQAPGKELVLVAVITSGATTNYADSLKGRFSISRDNAKNTGYLQMNSLKPEDTAVYYCAARPQVKRGRYGYWGQGTQVTVSS | low polyreactivity |
| QFQIVDSVRGLVQAGGSLRLSCAASGITFDFYAIGWYRQAPGKERELVAAISYSGTSTSYADSVKGRFTISRDNAKNTVYLQMNSLKAEDTAVYYCNARIGWTHSYYELDYWGQGTQVTVSS | low polyreactivity |
| QVQLVESGVGLVQAGGSLRLTCAASGSIFGRKAMGWYRKATGKERELVAAIRTRGGSTYYADSVKGRFTISRDNAKNTLYLQMNSLKPEDTAVFFCAAPGGGKVVDYWGQGTHVTVSS | low polyreactivity |
| QVQLVESGGGLVQAGGSLRLSCAASGRSFWKYAMGWCRQAPGKERELVAAITSDGSTYYADSVKGRFTISRDNAKNTVYFQMNSLKPEDTADYYCAAQQWFEYDYWGQGTQVTVSS | low polyreactivity |
| QVQHVESGGGLVQAGGSLRLSCAASGRIYFAYAMGWSRQAPGKERELVASITSGGSTNYADSVKGRFTISRDNGKNTLYLQMNSLKPEDTAVYYCAARSRFSNLYGRFYYWGQGTQVTVSS | high polyreactivity |

| Sequence | polyreactivity (PSR sort gate) |
| --- | --- |
| QVQLVESGGGLVQAGGSLRLSCAASGLTFGYYAMGWYRQAPGKERELVAAISSSGGRTYYADSVKGRFTISRDNAKNTVYLQMNSLKPEDSAVYYCAKSRYATQTDYNYWGQGTQVTVSS | high polyreactivity |
| QVQLVESGGGVVQAGCSLRLSCAASGFTFRTNAMGWYRQAPGIEREFVAAISWSGGSTYYADSVKGRFTISRDNAKNTVYLQMNSLKPEDTAVYYCNADPFHWYYTNMYYWGQGTQVTVSS | high polyreactivity |
| QVQLVESGGGLVQAGGSLRLSCAASGRIFGVYAMGWYRQAPGKERELVAAIDRRGGTTYYADSVKGRFTISRDNAKNTVYLQMNSLKPEDTAVYYCAARSYPFIATYGYWGQGTQVTVSS | high polyreactivity |
| QVQLVESGGGLVQAGGSLRLTCAASGNTFWDNAMRWYRQAPGKERELVAAIRWSTGSTHYADSVKGRFTISRDNAKNTVYLQMNSLKPEDTAVYDCAATDYYYYRDKYYGYVYWGQGTHVTVSS | low polyreactivity |
| QVQLVASGGGLVQAGGSLRLSCAASGSTFDIYAMGWYRQAPGKERELVAAISVSDVYTYYADSVKGRFTISRDNAKNTVYLQMNSLKPEDTAVYYCAAETPTHDEWGQGTQVTVSS | high polyreactivity |
| QVQLVESGGGLFQAGGSLRLSCAASGIIFTSYAMGWYRQAPGKESEFVAAITRSGSRTYYADSVKGRFTISRDNAKNTVYLQMNRLKPEDTAVYYCAARTYHDSSDSYAGGYWGQGTQVTVSS | low polyreactivity |
| QVQLVESGGGLVQAGGSLRLSCAASGFTFVGYVMGWYRQAPGKERELVAAISRRGRSTYYADSVKGRFTISRDNAKNTVYLQMNSLKPEDTAVYYCNKRWSSKSVQYDYWGQGTQVTVSS | high polyreactivity |
| QVQLVESGGGLVQAGGSLRLSCAASGISFITYVMGWYRQAPGKERELVAAISLRGGRTSYADSVKGRFTISRDNAKNTVYLQMNSLKPEDTAVYYCAARAYYTRYDYWGQGTQVTVSS | high polyreactivity |
| QVQLVESGGGLVQAGGSLRLSCAASGRTFASYARGWYRQAPGKERELVAVITRGVRTYYADSVKGRFTISRDNAKNTVYLQMNSLKPEDTAVYYCAKERYNANYDTSLYDYWGQGTQVTVSS | low polyreactivity |
| QVQLVESGGGLVQAGGSLRLSCAASGITFEGYALGWYRQAPGKERELVAAIRSSGTSTYYADSVKGRFTISRDNAKNTVYLQMNSLKPEDTAVYYCNRARSSSRYDYWGQGTQVTVSS | low polyreactivity |
| QVQLVESGGGLVQAGGSLRLSCAASGSTLQINGMGWYRQAPGKERELVAAISIGGDTNYADSVKGRFTISRDNAMNTVSLQMNSLKPEDTAVYYCAASGAYDEAYGEAFYYWGQGTQVIVSS | low polyreactivity |
| QVQLVESGGGLVQAGGSLRLSCAASGLIFLGYAMGWYRQAPGKERELVASIRTGGSTSYADSVKGRFTISRDNAKNTVYLQMNSLKPEDTAVYYCNARDYASGTEGDYWGQGTQVTVSS | low polyreactivity |
| QVQLVESGGGLVQAGGSLRLSCADSGIISIFNVIGWYRQAPGKERELVASITGRGGSTFYADSVKGRFTISRDNAKNTVYLQMNILKPEDTAVYYCATDTGYTYPVTGLYDYWGQGTQVTVSS | low polyreactivity |
| QVQLVESGGGLVQAGGSLRLSCAASGSTFGYYGMGWYRQAPGKERELVAAISASGGRTYYADSVKGRFTISRDNAKITVYLQMNSLKPEDTAVYYCAATVYAWRSTYGYWGQGTQVTVSS | high polyreactivity |
| QVQLVESGGGLVQAGGSLRLSCAASGFIFPAYTMGWYRQAPGKERELVAAITWSGGSTYYADSVKGRFTISRDNAKNTVYLQMKSLKPEDTAVYYCAAYVSRKYRKGPRFAYDYWGQGTQVTVSS | high polyreactivity |
| QVQLVESGGVLVQPGCILRLSCAASGRIYWYYAMGWYRQAPGKERELVAAISRSRGSTYYADSVKGRFTISRDNEKNTVYLQMNSLKPEDTAVYYCAAGARAFDDDYWGQGTQVTVSS | low polyreactivity |

— the nanobody polyreactivity screen of Harvey et al. (2022)
